The results in this text go back to paper doi:10.1101/432989 (bioRxiv, 2018).

Series [1] has as its target MazF-mt9 (Mycobacterium tuberculosis). Briefly: ITC.
The series “crystal structure” deals with the molecule itself. The series can be described thus: crystal structure.

B1: MazE-mt1 (natural protein)
chain: MKLSVSLSDDDVAILDAYVKRAGLPSRSAGLQHAIRVLRYPTLEDDYANAWQEWSAAGDTDAWEQTVGDGVGDAPR
Molecule B1 returned a Kd in series [1] of 59.3 nM.

B2: MazE-mt1 D69A mutant (natural protein)
chain: MKLSVSLSDDDVAILDAYVKRAGLPSRSAGLQHAIRVLRYPTLEDDYANAWQEWSAAGDTDAWEQTVGAGVGDAPR
In the case of B2, in series [1], the fold weakening of affinity against WT MazE-mt1 is 5.3 fold.

B3: MazE-mt9 (natural protein)
chain: MSTSTTIRVSTQTRDRLAAQARERGISMSALLTELAAQAERQAIFRAEREASHAETTTQAVRDEDREWEGTVGDGLG
In the case of B3, in “crystal structure”, the binding result is “binds”. This molecule returned a Kd in series [1] of 17.5 nM.

B4: MazE-mt9 D74A mutant (natural protein)
chain: MSTSTTIRVSTQTRDRLAAQARERGISMSALLTELAAQAERQAIFRAEREASHAETTTQAVRDEDREWEGTVGAGLG
Turning to B4, the fold increase of KD against WT MazE-mt9 in series [1] amounted to 2 fold.

B5: MazE-mt9 R46A-E48A-D74A triple mutant (natural protein)
chain: MSTSTTIRVSTQTRDRLAAQARERGISMSALLTELAAQAERQAIFAAAREASHAETTTQAVRDEDREWEGTVGAGLG
As to B5, the fold increase of KD against WT MazE-mt9 in series [1] was 8 fold.
